In the nanobody polyreactivity screen of Harvey et al. (2022):

Assay: yeast display, Sf9 membrane polyspecificity reagent, FACS + sequencing; frameworks hold sequencing errors
Summary of the method: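 Nanobodies came from a synthetic yeast display library in Saccharomyces cerevisiae BJ5465, induced with galactose for 36–48 hours and stained for 1 hour at 4 °C with 10% biotinylated, detergent-solubilized Sf9 membrane reagent. Cells were enriched on streptavidin microbeads and then FACS-sorted, with low and high (top ~1%) gates set on anti-HA fluorescence for expression and streptavidin fluorescence for reagent binding. Each polyreactivity label reflects the gate a clone came from. Genes were amplified by colony PCR, sequenced by MiSeq 2 × 250 and filtered by CDR length.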

With “QVQLVESGGGLVQAGGSLRLSCAASGRTFGKNAMGWYRQAPGKERELVAAIRYRTGSTYYADSVKGRFTISRDNAKNTVYLQMNSLKPEDTAVYYCAKVGSSPLYWGQGTQVTVSS” the “polyreactivity (PSR sort gate)” value was “high polyreactivity”.

For “QVQLVESGGGLVQAGGSLRLSCAASGSIFYVYAMGWSRQAPGKERELVASITRRRTNYADSVKGRFTISRDTAKNTVYLQMNSLKPEDTAVYYCAATTYVRQYATYDYWGQGTQVTVSS”, the “polyreactivity (PSR sort gate)” value was “high polyreactivity”.

In the case of “QVHLVESGGCLVQSGGSLRLSCAASGSTFPSYAKGWYRQAPGKERELVAAINSGGGTNYADSVKGRFTISRDNAKNTVYLQMNILKPEDTAVYYCAADVWKLYAYWGQGTQVTVSS”, the “polyreactivity (PSR sort gate)” value is reported as “low polyreactivity”.

With “QVQLVESGGGLVQAGGSLRLSCAATGSTFIDNARGWYRQAPGKERELVAAINSSGGNTYYADSVKGRFTISRDNAKNTVYLQMNSLKPEDTAVYYCNAEFSVLYFYDYEYWGQGTQVTVSS” the “polyreactivity (PSR sort gate)” value was “low polyreactivity”.

In the case of “QVQLVESGGGLVQAGGSLRLSCAASGSIFRIYAMGWYRHAPGKERELVAAITGRGGSTYYADSVKGRFTISRDNEKNTVYLQMNSLKPEDTAVYYCAAEERYAYRYDYWGQGTQVTVSS”, the “polyreactivity (PSR sort gate)” value is reported as “high polyreactivity”.

With “QVQLVESGGGLVQAGGSLRLSCAASGSILFRYGMGWYRQAPGKERELVAAINSGGSTYADSVKGRFTISRDNAKNTVYLQMNSLKPEDTAVYYCAKVAWQAHGGPGEFDYWGQGTQVTVSS” the “polyreactivity (PSR sort gate)” value was “low polyreactivity”.

In the case of “QVQLVESGGGLVQAGGSLRLSCAASGFTFYPYAMGWYRQAPGKERELVAIRSDGSTYYADSVKGRFTISRDNAKNTVYLQMNCLKPEDTAVYYCNTEPSRDSYSLYFQTRGDYWGQGTQVTVSS”, the “polyreactivity (PSR sort gate)” value is reported as “low polyreactivity”.

With “QVQLVESGGGLVQAGGSLRLSCAASGSIFKFYAMGWYRQAPGKERELVAAISQSGGRTYYADSVKGRFTISRDNAKNTVYLQMNSLKPEDTAVYYCAKSVFPVYGRPSNLWFNYWGQGTQVTVSS” the “polyreactivity (PSR sort gate)” value was “high polyreactivity”.

With “QVQLVQTGGGLVQAGGSLRLSCAGSGSTFTSYVMGWYRQAPGKERELVAAITSSGGDTYYADSVKGRFTISRDNAKNTVYLQMNSVKPEDTAVYYCATRSYYRSSYYRNRYPYDYWGQGTQVTVSS” the “polyreactivity (PSR sort gate)” value was “low polyreactivity”.

In the case of “QVQLVESGGGLVQAGGSLRLSCAASGRTYVKNAMGWYRQAPGKERELVAAITSGGSTYYADSVKGRFTISRDNAKNTVYLQMNSLKPEDTAVYYCAAAWSSRYVSRYYYWGQGTQVTVSS”, the “polyreactivity (PSR sort gate)” value is reported as “high polyreactivity”.

In the case of “QVQLVESGGGLVQAGGRLRLSCAASGRTFFGYAMGWYRQAPGKERELVAAITSSGGRTYYADSVKGRFTISRDNAKNTVYLQMNSLKPEDTAVYYCNTVLSFRSVNIYRGRGDYWGQGTQVTVSS”, the “polyreactivity (PSR sort gate)” value is reported as “high polyreactivity”.

With “QVQLVESGGGLVQAGGSLRLSCAASGFIFYQYAMGWYRQAPGKERELVAAISWGGGSTYYADSVKGRFTISRDNAKNTVYLQMNSLKPEDTAVYYCAATGLGWHSYHEYDYWGQGTQVTVSS” the “polyreactivity (PSR sort gate)” value was “low polyreactivity”.

For “QVQLVESVGGLVQAGGRLRLSCAASGSTFRYYAMGRYRPATGKESELVAAISRSGGSTYYADSVKGRFTISRDNAKNTVYLQMNSLKTEDTAVYYSNGRYYTFYSIYDYWGQGTQVTVSS”, the “polyreactivity (PSR sort gate)” value was “high polyreactivity”.

With “QVQLVESGGGLVQAGGSLRLSCAASGGTLYRYAMGWYRQAPGKERELVAGISSSGGRTYNADSVKGRFTISRDNAKNTVYLQMNSLIPEDTAVYYCAKYWVSSYDYWGQGTQVTVSS” the “polyreactivity (PSR sort gate)” value was “high polyreactivity”.

With “QVQLVESGGGLVQAGGSLRLSCAASGIIFTGYTMGWYRQAPGKERELVAAITWRGGCTYYADSVKGRFTISRDNAKNTVYLQMNSLKPEDTAVYYCAAEGWYSWDDDYWGQGTQVTVSS” the “polyreactivity (PSR sort gate)” value was “low polyreactivity”.

For “QVQLVESGGGLVQAGGSLRLSFAASGRTFDRNAMGWYRQAPGKERELVARITIDGSTNYADSVKGRFTISRDNAKNTVYLQMNSLKPEDTAVYYCATDQLSLSWYFRPYDYGYWGQGTQVTVSS”, the “polyreactivity (PSR sort gate)” value was “high polyreactivity”.

In the case of “HVQLVESGGGLVQAGGSLRIICAASVRIFYLYAMGWYRRAPGKERELVATINSGGSTKYADSVKGRFTISRDNAKNSVYLQRNSLKPEDTAVYYCNAKRWKDYYPYQSWKYGYWGQGTQVTVSS”, the “polyreactivity (PSR sort gate)” value is reported as “high polyreactivity”.

For “QVQLVESGGGLVQAGGSLRLSCAASGVNAMGWYRPAPGKEREFVAAITSIGGSTYYADSVKGRFTISRDNAKNTVYLQMNSLKPEDTAVYYCNTDRGPVKVSPLYVSWGQGTQVTLSS”, the “polyreactivity (PSR sort gate)” value was “low polyreactivity”.

With “QVQLVESGGGLVQAGGSLRLSCAACGRTFVSYSMGWYRQAPGKERELVAAISRSGGRTYYADSVKGRFTISRDNAKNTVYLQMNSLKPEDTAVYYCATIQYGTLARYDYWGQGTQVTVSS” the “polyreactivity (PSR sort gate)” value was “high polyreactivity”.

With “QVQLVESGGGLVQAGGSLRLSCAASGFIFAYNAMGWYRQAPGKERELVASIRTRGGSTYYADSVKGRFTISRDNAKNTVYLQMNSLKPEDTAVYYCAARPFPRRYDYWGQGTQVTVSS” the “polyreactivity (PSR sort gate)” value was “low polyreactivity”.

With “QVQLVESGGGLVQAGGSLRLSCAASGFTFGRNAMGWYRQAPAKERELVAAISYDGTRTYYADSVKGRFTISRDKAKNTVYLQMNSLKPEDTAVYYGNAVWVRGFYRVYDYWGQGTQVTVSS” the “polyreactivity (PSR sort gate)” value was “high polyreactivity”.

With “QVQLVESGGGLVQAGGSLRLSCAASGSIFAIYTMGWYRQAPGKVRELVAGITKSGGNTYYADSVKGRFTISRDNAKNTVYLQMNSLKPEDTSVYYCAASQYEYYDGWYRYDYWGQGTQVTVSS” the “polyreactivity (PSR sort gate)” value was “high polyreactivity”.

In the case of “QVQLVESGGGLVQAGGSLRLSCAASGSIFSPYAMGWYRQAPGKERELVAAISFRASTTYYADSVKGRFTISRDNAKNTVYLQMNSLKPEYTAVYYCAKKRPGFLRYGSIGEFQYDYWGQGTQVTVSS”, the “polyreactivity (PSR sort gate)” value is reported as “low polyreactivity”.

With “QVQLVESGGGLVQAGGSLRLSCAASGSTFWATAMGWYRQAPGKERELVAAITTSGASTNYADSVKGRFTISRDNAKNTVYLQMNSLKPEDTAVYYCAADYDSYYWYNYWGQGTQVTVSS” the “polyreactivity (PSR sort gate)” value was “low polyreactivity”.

For “QVQLVESGGGLVQAGGSLRLSCAASGSIFLAYAMGWYRQAPGKERELVASTYYADSVKGRFTISRDNAKNTVYLQMNSLKPEDTAVYYCAADRIYSIYVSPYYSFGYWGQGTQVTVSS”, the “polyreactivity (PSR sort gate)” value was “low polyreactivity”.

For “QVQLVESGGGLVQAGASLRLSCAASGSIFAGYAMGWYRQAPWKERELVAAISWSGGGTYYADSVKGRFTISRDNEKNTVYLQMNSLKPEDTAVYYCNAYGYRHRGNGYWGQGTQVTVSS”, the “polyreactivity (PSR sort gate)” value was “high polyreactivity”.

With “QVQLVESGGGLLQAGGSLRLSCAASGFTFQYNAMGWYRQAPGKERELVAAISRSGTSTYYADSVKGRFTISRDNAKNTVYLQMNSLKPEDTGVYYCNAYYLSGSVYWTGDIYDYWGQGTQVTVSS” the “polyreactivity (PSR sort gate)” value was “high polyreactivity”.

For “QVQLVESGGGLVQAGGSLRLSCAASGSIIYIYAMGWYRQAPGKERELVAAISSGDRTNYADSVKGRFTISRDNAKNTVYLQMNSLKPEDTAVYYCAAERKNKYDYWGQGTQVTVSS”, the “polyreactivity (PSR sort gate)” value was “high polyreactivity”.

In the case of “QVQLQEGGGGLVQAGGSLRLSCAASGYIFNGDWMGWYRQAPGKERELVATINYGATTNYADSVKGRFTISRDNAKNTVYLQMNSLKPEDTAVYYCAVGGHGAQLYVYWGQGTQVTVSN”, the “polyreactivity (PSR sort gate)” value is reported as “high polyreactivity”.

In the case of “QVQLVESGGGLVQAGGSLRLSCAASGFIFEWNGMGWYRQAPGKERELVAAITWSGGSTYYADSVKGRFTISRDNAKNTVYLQMNSLKPEDTAVYYCNAYWKDDFEDGPGRRGMDYWGQGTQVTVSS”, the “polyreactivity (PSR sort gate)” value is reported as “low polyreactivity”.

With “QVQLVESGGGLVQAGGSLRLSCAASGFIFQYYAMGWFRQARGKERELVAAIRSGGSTYYADSVKGRFTISRDNAKNTFYLQLNSLKPEDTAVYFCGAKYRVFYGFDYWGQGTQVTVSS” the “polyreactivity (PSR sort gate)” value was “high polyreactivity”.

With “QVQLVESGGGLVQAGGSLRLSCAASGSTFGWNAMGWYRQAPGKERELVAAISSSGGITYYAYSVKGRFTISRDKAKNTVSLQMNSLKPEDTAVYYCAAERDDDWGNYWGQGTQVTGSS” the “polyreactivity (PSR sort gate)” value was “low polyreactivity”.

With “QVQLVESGGGLVQAGGSLRLSCAASGFTFERYTMGWYRPAPGKERELVATISRRSGRTSYADSVKGRFTISRDNAKNTVYLQMNSLKPEDTAVYYCAVDDAYPDRYDYWGQGTQVTVSS” the “polyreactivity (PSR sort gate)” value was “high polyreactivity”.

With “QVQLVESGGGLVQAGCSLRLSCAASGRIFVEYAMGWYRQAPGKVTELVAAINSGGSTNYADSVKGRFTISRDNAKNTVYLQMNSLKPEDTAVYYCNIDTLVYGYVQDYEYWGQGSQVTVSS” the “polyreactivity (PSR sort gate)” value was “low polyreactivity”.

In the case of “QVQLQESGGGLVQAGGSLLSCAASGTISYYREMGWYRQAPGKERELVAGIGVGTITYYADSVKGRFTISRDNAKHTVYLQMNSLKPEDTAVYYCAAAYQEYDYHYYYWGQGTQVTVSS”, the “polyreactivity (PSR sort gate)” value is reported as “low polyreactivity”.

In the case of “QVQLVESGGGLVQAGGSLRLSCAASGRTFYPNAMGWYRQAPGKERELVAGIRSSGDSTYYADSVKGRFTISRDNAKNTVYLQMNSLKPEDTAVYYCNRDLTPSYDYWGQGTQVTVSS”, the “polyreactivity (PSR sort gate)” value is reported as “low polyreactivity”.

With “QVQLVESGGGLVQAGGSLRLSCAASGRIFWYYDMGWYRQAPGKERELVAAITSGGRTYYADSVKGRFTISRDNAKNTVYLQMNRLKPEDTAVYYCAAEGFYTTGSPYSGGLDYWGQGTQVTVSS” the “polyreactivity (PSR sort gate)” value was “low polyreactivity”.

In the case of “QVQLVESGGGLVQAGGSLRLSCAASGRNFGDYAMGWYRQAPGKERELVAAISSSGGRTYYADSVKGRFTISRDNAKNTVYLQMNSLQPEDTAVYYCAAQSKYYQYYSWGQGTQVTVSS”, the “polyreactivity (PSR sort gate)” value is reported as “high polyreactivity”.

With “QVQLVESGGGLVQAGGSLRLSCAASGSTSYYYTMGWYRQAPGKERELVASISSSGTSTYYADSVKGRFTISRDNPKNTVYLQMNSLKPEDTAVYYCAATADNNTPSGYDYWGQGTQVTVSS” the “polyreactivity (PSR sort gate)” value was “high polyreactivity”.

In the case of “QVQLVESGGGLVQAGGSLRLICAASGSIFTKYTMGWSRQAPGKERELVAAITLRGTSTYYADSVKGRFTISRDNAMNTVYLQMNSLIPEDTAFYYCNKLYSWVVAYDYWGQGTQVTVSS”, the “polyreactivity (PSR sort gate)” value is reported as “high polyreactivity”.

With “QVQLVESGGGLVQAGRSLRLSCAASGRIFKYNAMGWYRQAPGKERELVAVITSGGSTYYADSEKGRFTISRDNAMNTDSLQKNSLKQVDTAVYYCNSPYARYYTRYSAYDYWGQGTQVTVSS” the “polyreactivity (PSR sort gate)” value was “low polyreactivity”.

With “PVQLVESGGGLVQAGGSLRLSCAASGSTIPSYAMGWYRQAPGKERELVASITYSDGTTRYADSVKGRFTISRDNAKNTVYLQMNSLKPEDTAVYYCNAVYYREGMDYWGQGTQVTVSS” the “polyreactivity (PSR sort gate)” value was “low polyreactivity”.

In the case of “QVQLVESGGGLVHAGGSLRLSCAASGITFEVYGMGWYRQSPGKERELVAAINSDGNTNYADSVKGRFTISRDNAKNTVYLEMNSVKPEDTAVYYCATVVNAQISRGESAVTGYYYWGQGTQVTVSS”, the “polyreactivity (PSR sort gate)” value is reported as “high polyreactivity”.
